Assay results published in publication doi:10.1101/2024.05.23.595515v1.

B1: ADK (human adenosine kinase) (Homo sapiens) (protein)
chain: MTSVRENILFGMGNPLLDISAVVDKDFLDKYSLKPNDQILAEDKHKELFDELVKKFKVEYHAGGSTQNSIKVAQWMIQQPHKAATFFGCIGIDKFGEILKRKAAEAHVDAHYYEQNEQPTGTCAACITGDNRSLIANLAAANCYKKEKHLDLEKNWMLVEKARVCYIAGFFLTVSPESVLKVAHHASENNRIFTLNLSAPFISQFYKESLMKVMPYVDILFGNETEAATFAREQGFETKDIKEIAKKTQALPKMNSKRQRIVIFTQGRDDTIMATESEVTAFAVLDQDQKEIIDTNGAGDAFVGGFLSQLVSDKPLTECIRAGHYAASIIIRRTGCTFPEKPDFH
B2: ADAL (hADAL, adenosine deaminase-like) (Homo sapiens) (protein)
chain: MIEAEEQQPCKTDFYSELPKVELHAHLNGSISSHTMKKLIAQKPDLKIHDQMTVIDKGKKRTLEECFQMFQTIHQLTSSPEDILMVTKDVIKEFADDGVKYLELRSTPRRENATGMTKKTYVESILEGIKQSKQENLDIDVRYLIAVDRRGGPLVAKETVKLAEEFFLSTEGTVLGLDLSGDPTVGQAKDFLEPLLEAKKAGLKLALHLSEIPNQKKETQILLDLLPDRIGHGTFLNSGEGGSLDLVDFVRQHRIPLELCLTSNVKSQTVPSYDQHHFGFWYSIAHPSVICTDDKGVFATHLSQEYQLAAETFNLTQSQVWDLSYESINYIFASDSTRSELRKKWNHLKPRVLHI

Assays:
Test in all cases: purified protein
purified protein [1] = substrate: CNc1ncnc2c1ncn2[C@@H]1O[C@H](CO)[C@@H](O)[C@H]1O; conditions: ATP 1 mM, 37 °C, HEPES, NaCl, MgCl2, CaCl2
purified protein [2] = substrate: CC(C)=CCNc1ncnc2c1ncn2[C@@H]1O[C@H](CO)[C@@H](O)[C@H]1O; conditions: ATP 1 mM, 37 °C, HEPES, NaCl, MgCl2, CaCl2
purified protein [3] = substrate: CN(C)c1ncnc2c1ncn2[C@@H]1O[C@H](CO)[C@@H](O)[C@H]1O; conditions: ATP 1 mM, 37 °C, HEPES, NaCl, MgCl2, CaCl2
purified protein [4] = substrate: CN(C)c1ncnc2c1ncn2[C@@H]1O[C@H](COP(=O)(O)O)[C@@H](O)[C@H]1O; conditions: 37 °C, HEPES, NaCl, MgCl2, 2-mercaptoethanol
purified protein [5] = substrate: CNc1ncnc2c1ncn2[C@@H]1O[C@H](COP(=O)(O)O)[C@@H](O)[C@H]1O; conditions: 37 °C, HEPES, NaCl, MgCl2, 2-mercaptoethanol
purified protein [6] = substrate: CC(C)=CCNc1ncnc2c1ncn2[C@@H]1O[C@H](COP(=O)(O)O)[C@@H](O)[C@H]1O; conditions: 37 °C, HEPES, NaCl, MgCl2, 2-mercaptoethanol

| Protein | Km (purified protein [1]) [µM] | kcat (purified protein [1]) [s⁻¹] | Km (purified protein [2]) [µM] | kcat (purified protein [2]) [s⁻¹] | Km (purified protein [3]) [µM] | kcat (purified protein [3]) [s⁻¹] | Km (purified protein [4]) [µM] | kcat (purified protein [4]) [s⁻¹] | Km (purified protein [5]) [µM] | kcat (purified protein [5]) [s⁻¹] | Km (purified protein [6]) [µM] | kcat (purified protein [6]) [s⁻¹] |
| --- | --- | --- | --- | --- | --- | --- | --- | --- | --- | --- | --- | --- |
| B1 | 15 ± 1.8 | 0.28 ± 0.0063 | 10 ± 1.0 | 0.18 ± 0.018 | 6.1 ± 0.31 | 0.27 ± 0.0024 | – | – | – | – | – | – |
| B2 | – | – | – | – | – | – | 65 ± 1.7 | 2.6 ± 0.036 | 47 ± 1.1 | 2.4 ± 0.068 | 35 ± 1.4 | 1.9 ± 0.066 |
